Results: US9260500B2, “Peptide and use thereof” (Takeda Pharmaceutical Company Limited, priority 2009, dated 2016)
Non-standard residues stand in square brackets, D forms with d. No end group written: not given here. *: point of attachment. 4‑Guanidinomethylbenzoyl = N=C(N)NCc1ccc(C(=O)*)cc1; Arg(Me) = CNC(=N)NCCC[C@H](N)C(=O)O; Lys(Me2) = CN(C)CCCC[C@H](N)C(=O)O; 4Pal = N[C@@H](Cc1ccncc1)C(=O)O; Cha = N[C@@H](CC1CCCCC1)C(=O)O; dIva = CC[C@@](C)(N)C(=O)O; Iva = CC[C@](C)(N)C(=O)O; Orn = NCCC[C@H](N)C(=O)O; Abu = CC[C@H](N)C(=O)O; Aib = CC(C)(N)C(=O)O; Bz = O=C(c1ccccc1)*; GABA = NCCCC(=O)O

Legend:
human Y2 receptor [1] = biological target: T1, human Y2 receptor (Homo sapiens, UniProt P49146); assay: Human Y2 Receptor G Protein Binding Assay (GBA), [35S]GTPγS; format: biochemical; details: EC50 of test compound/EC50 of PYY(3-36) (PYY3-36 taken as 1), hY2R/CHO membrane fraction
T1 construct: expressed in transfected cells; membrane fraction
T1 sequence (P49146 1-381): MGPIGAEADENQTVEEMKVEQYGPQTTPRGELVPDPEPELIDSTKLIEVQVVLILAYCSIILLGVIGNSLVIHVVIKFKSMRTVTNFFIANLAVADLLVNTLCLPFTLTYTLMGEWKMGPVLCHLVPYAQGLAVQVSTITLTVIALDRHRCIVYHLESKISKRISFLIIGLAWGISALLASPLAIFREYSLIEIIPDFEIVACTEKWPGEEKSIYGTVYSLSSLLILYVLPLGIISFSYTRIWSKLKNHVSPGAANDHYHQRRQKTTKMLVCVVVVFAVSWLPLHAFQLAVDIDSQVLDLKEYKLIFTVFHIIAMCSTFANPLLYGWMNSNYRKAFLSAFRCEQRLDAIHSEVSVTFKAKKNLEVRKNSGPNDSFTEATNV
Protocol: (3) Test Method: Human Y2 Receptor G Protein Binding Assay (GBA)
The agonist activity of the compound of the present invention against the human Y2 receptor was measured by the method described below.
2 μL of the test compound, serially diluted with DMSO from 100 μM to 1 nM, was dispensed to a 96-well plate, and 100 μL of the membrane fraction, previously diluted with an assay buffer (50 mM Tris, 5 mM MgCl2, 150 mM NaCl, […], 0.03% NaN3, 0.1% BSA, pH 7.4) to 1 μg protein/mL, was dispensed thereto, subsequently, 100 μL of a [^35S]GTPγS (NEG030H, PerkinElmer, previously diluted with the assay buffer to 1 nM) was added, and they were mixed by pipetting. After incubation at room temperature for 120 minutes, the mixture was filtered through the cell harvester FilterMate (PerkinElmer) using the UniFilter-96 GF/C (PerkinElmer), and the filter was washed 3 times with a filtering buffer (50 mM Tris, 5 mM MgCl2, 150 mM NaCl, 0.03% NaN3, 0.05% CHAPS, pH 7.4). Thereafter, UniFilter-96 GF/C was dried in a mechanical drier for 1 hour, 15 μl of the liquid scintillator MicroScint O (PerkinElmer) was added to each well, and a measurement was taken using TopCount (PerkinElmer). The data obtained were analyzed using Prism to calculate the EC50 value. The agonist activity of the test compound was expressed as a ratio to the EC50 value of PYY3-36 taken as 1 (EC50 Ratio: EC50 of test compound/EC50 of PYY(3-36)). The results are shown in the GBA column in Table 5 (Table 5-1-Table 5-10).

human Y2 receptor [2] = biological target: T1, human Y2 receptor; assay: Receptor Binding Assay (RBA) for Human Y2, [125I]-PYY displacement on hY2R/CHO membrane fraction; details: IC50 of test compound/IC50 of PYY(3-36) (PYY(3-36) taken as 1)
Protocol: (1) Construction of Expression Plasmid for the Human Y2 Receptor (Y2R) Gene
PCR was performed by a reaction using Pfu DNA polymerase ([…]), with a human brain cDNA (PT3158-1, Clontech) as the template, wherein synthetic DNAs with the following sequences were used as a combination of 5′ and 3′ primers, whereby the human Y2R gene was cloned. Primer 1 was prepared on the basis of base sequence information on the human Y2R gene (Refseq ID No. NM_000910) with the addition of Kozak's consensus sequence. Primer 2 was prepared on the basis of base sequence information on the human Y2R gene.
The PCR product obtained was cloned into pCR4-Blunt-TOPO (Invitrogen), and the plasmid was extracted according to a conventional method (QIAwell 8 Plus, QIAGEN). After confirming the base sequence, the human Y2R gene was re-cloned by a PCR reaction with the plasmid DNA as the template, using Primer 1 as the 5′ primer and Primer 2 as the 3′ primer. The PCR was performed using the Pyrobest DNA polymerase (TaKaRa). The PCR product obtained was re-cloned into pCR-Blunt II-TOPO (Invitrogen), and the plasmid was extracted according to a conventional method (QIAGEN). An Xho I restriction enzyme digestion site and an Spe I restriction enzyme digestion site are present in the cloning site of the pCR-Blunt II-TOPO; a plasmid clone was selected wherein the human Y2R gene was inserted in the orientation such that the Xho I restriction enzyme digestion site was positioned upstream of Primer 1, and the Spe I restriction enzyme digestion site was positioned downstream of Primer 2. After confirming the base sequence, the plasmid clone was digested with the restriction enzymes Xho I and Spe I to yield a DNA fragment. The DNA fragment was inserted into the animal cell expression vector pAKKO-111H (the same plasmid as pAKKO-1.111H described in Biochem. Biophys. Acta, Hinuma, S. et al., 1219, 251-259 (1994)), which was enzymatically digested with Sal I and Spe I, to yield the expression plasmid pAK-hY2R (pAKKO-111H/Y2R).
(2) Test Method: Receptor Binding Assay (RBA) for Human Y2
A human NPY2R (hY2R) stable expression cell line was acquired by transducing the animal cell expression plasmid pAK-hY2R into CHO/dhfr-cells using the CellPhect Transfection kit (Amersham Pharmacia Biotech Co.). First, 240 μl of Buffer A (attached to the CellPhect Transfection kit) was added to 9.6 μg of the plasmid DNA dissolved in 240 μl of distilled water; this mixture was stirred and allowed to stand for 10 minutes, after which 480 μL of Buffer B (attached to the CellPhect Transfection kit) was added, and the mixture was vigorously stirred to form a liposome containing the DNA. 2.5×10^5 or 4×10^5 CHO/dhfr− cells (obtained from ATCC) were seeded to 60 mm petri dishes, and cultured in Ham's F-12 medium (Sigma Co.) containing 10% fetal bovine serum (BioWest Co.) at 37° C. in 5% gaseous carbon dioxide for 1 day, after which 480 μL of the liposome was added drop by drop on to the cells in each petri dish. This was cultured at 37° C. in 5% gaseous carbon dioxide for 6 hours, after which the cells were twice washed with serum-free Ham's F-12 medium; 3 mL of 15% glycerol was added onto the cells in the petri dish and treated for 2 minutes. This was again washed 3 times with serum-free Ham's F-12 medium, after which the cells were cultured in Ham's F-12 medium containing 10% fetal bovine serum at 37° C. in 5% gaseous carbon dioxide. The cells were dispersed by trypsinization and recovered from the petri dishes, and seeded to a 6-well plate at 2.5×10^4 or 4×10^4 cells per well; cultivation was begun in Dulbecco's modified Eagle medium <DMEM> medium (Sigma Co.) containing dialyzed 10% fetal bovine serum (Invitrogen Co.) at 37° C. in 5% gaseous carbon dioxide. Since plasmid-introduced transformant CHO cells grow in the medium, whereas cells without plasmid introduction die gradually, about 20 colonies of transformed CHO cell that had grown 9-13 days after the start of the cultivation were isolated. […]

## Ac-[D-Pro24, Cha27,28,36, Lys(Me2)30, Aib31]-PYY(23-36) (Ac-S[dP]RH[Cha][Cha]N[Lys(Me2)][Aib]TRQR[Cha]-NH2; SMILES CC(=O)N[C@@H](CO)C(=O)N1CCC[C@@H]1C(=O)N[C@@H](CCCNC(=N)N)C(=O)N[C@@H](Cc1c[nH]cn1)C(=O)N[C@@H](CC1CCCCC1)C(=O)N[C@@H](CC1CCCCC1)C(=O)N[C@@H](CC(N)=O)C(=O)N[C@@H](CCCCN(C)C)C(=O)NC(C)(C)C(=O)N[C@H](C(=O)N[C@@H](CCCNC(=N)N)C(=O)N[C@@H](CCC(N)=O)C(=O)N[C@@H](CCCNC(=N)N)C(=O)N[C@@H](CC1CCCCC1)C(N)=O)[C@@H](C)O) [compound No. 166]
Human Y2 receptor [1]
  GBA EC50 Ratio: 0.7
Human Y2 receptor [2]
  RBA IC50 Ratio: 0.8

## [D-Ser23, Abu26, Cha27,28,36, Aib31]-PYY(23-36) ([dS]LR[Abu][Cha][Cha]NL[Aib]TRQR[Cha]-NH2; N-terminus assumed; SMILES CC[C@H](NC(=O)[C@H](CCCNC(=N)N)NC(=O)[C@H](CC(C)C)NC(=O)[C@H](N)CO)C(=O)N[C@@H](CC1CCCCC1)C(=O)N[C@@H](CC1CCCCC1)C(=O)N[C@@H](CC(N)=O)C(=O)N[C@@H](CC(C)C)C(=O)NC(C)(C)C(=O)N[C@H](C(=O)N[C@@H](CCCNC(=N)N)C(=O)N[C@@H](CCC(N)=O)C(=O)N[C@@H](CCCNC(=N)N)C(=O)N[C@@H](CC1CCCCC1)C(N)=O)[C@@H](C)O) [compound No. 85]
Human Y2 receptor [1]
  GBA EC50 Ratio: 11
Human Y2 receptor [2]
  RBA IC50 Ratio: 15

## Ac-[GABA24, Cha27,28,36, Aib31]-PYY(23-36) (Ac-S[GABA]RH[Cha][Cha]NL[Aib]TRQR[Cha]-NH2; SMILES CC(=O)N[C@@H](CO)C(=O)NCCCC(=O)N[C@@H](CCCNC(=N)N)C(=O)N[C@@H](Cc1c[nH]cn1)C(=O)N[C@@H](CC1CCCCC1)C(=O)N[C@@H](CC1CCCCC1)C(=O)N[C@@H](CC(N)=O)C(=O)N[C@@H](CC(C)C)C(=O)NC(C)(C)C(=O)N[C@H](C(=O)N[C@@H](CCCNC(=N)N)C(=O)N[C@@H](CCC(N)=O)C(=O)N[C@@H](CCCNC(=N)N)C(=O)N[C@@H](CC1CCCCC1)C(N)=O)[C@@H](C)O) [compound No. 156]
Human Y2 receptor [1]
  GBA EC50 Ratio: 3.0
Human Y2 receptor [2]
  RBA IC50 Ratio: 5.8

## Ac-[Iva23, D-Pro24, Cha27,28,36, Aib31]-PYY(23-36) (Ac-[Iva][dP]RH[Cha][Cha]NL[Aib]TRQR[Cha]-NH2; SMILES CC[C@](C)(NC(C)=O)C(=O)N1CCC[C@@H]1C(=O)N[C@@H](CCCNC(=N)N)C(=O)N[C@@H](Cc1c[nH]cn1)C(=O)N[C@@H](CC1CCCCC1)C(=O)N[C@@H](CC1CCCCC1)C(=O)N[C@@H](CC(N)=O)C(=O)N[C@@H](CC(C)C)C(=O)NC(C)(C)C(=O)N[C@H](C(=O)N[C@@H](CCCNC(=N)N)C(=O)N[C@@H](CCC(N)=O)C(=O)N[C@@H](CCCNC(=N)N)C(=O)N[C@@H](CC1CCCCC1)C(N)=O)[C@@H](C)O) [compound No. 178]
Human Y2 receptor [1]
  GBA EC50 Ratio: 17
Human Y2 receptor [2]
  RBA IC50 Ratio: 13

## Ac-[D-Pro24, Orn26, Cha27,28,36, Aib31]-PYY(23-36) (Ac-S[dP]R[Orn][Cha][Cha]NL[Aib]TRQR[Cha]-NH2; SMILES CC(=O)N[C@@H](CO)C(=O)N1CCC[C@@H]1C(=O)N[C@@H](CCCNC(=N)N)C(=O)N[C@@H](CCCN)C(=O)N[C@@H](CC1CCCCC1)C(=O)N[C@@H](CC1CCCCC1)C(=O)N[C@@H](CC(N)=O)C(=O)N[C@@H](CC(C)C)C(=O)NC(C)(C)C(=O)N[C@H](C(=O)N[C@@H](CCCNC(=N)N)C(=O)N[C@@H](CCC(N)=O)C(=O)N[C@@H](CCCNC(=N)N)C(=O)N[C@@H](CC1CCCCC1)C(N)=O)[C@@H](C)O) [compound No. 150]
Human Y2 receptor [1]
  GBA EC50 Ratio: 2.2
Human Y2 receptor [2]
  RBA IC50 Ratio: 4.2

## 4-Guanidinomethylbenzoyl-[Iva25, Cha27,36, Aib28,31, Lys30]-PYY(25-36) ({4‑Guanidinomethylbenzoyl}-[Iva]H[Cha][Aib]NK[Aib]TRQR[Cha]-NH2; SMILES CC[C@](C)(NC(=O)c1ccc(CNC(=N)N)cc1)C(=O)N[C@@H](Cc1c[nH]cn1)C(=O)N[C@@H](CC1CCCCC1)C(=O)NC(C)(C)C(=O)N[C@@H](CC(N)=O)C(=O)N[C@@H](CCCCN)C(=O)NC(C)(C)C(=O)N[C@H](C(=O)N[C@@H](CCCNC(=N)N)C(=O)N[C@@H](CCC(N)=O)C(=O)N[C@@H](CCCNC(=N)N)C(=O)N[C@@H](CC1CCCCC1)C(N)=O)[C@@H](C)O) [compound No. 252]
Human Y2 receptor [1]
  GBA EC50 Ratio: 2.8
Human Y2 receptor [2]
  RBA IC50 Ratio: 6.3

## Benzoyl-[Cha27,36, Ile28, Arg(Me)31]-PYY(25-36) (Bz-RH[Cha]INL[Arg(Me)]TRQR[Cha]-NH2) [compound No. 70]
Human Y2 receptor [1]
  GBA EC50 Ratio: 15
Human Y2 receptor [2]
  RBA IC50 Ratio: 18

## Ac-[D-Pro24, Pya(4)26, Cha27,36, D-Iva28,31, Lys30]-PYY(23-36) (Ac-S[dP]R[4Pal][Cha][dIva]NK[dIva]TRQR[Cha]-NH2; SMILES CC[C@@](C)(NC(=O)[C@H](CC1CCCCC1)NC(=O)[C@H](Cc1ccncc1)NC(=O)[C@H](CCCNC(=N)N)NC(=O)[C@H]1CCCN1C(=O)[C@H](CO)NC(C)=O)C(=O)N[C@@H](CC(N)=O)C(=O)N[C@@H](CCCCN)C(=O)N[C@](C)(CC)C(=O)N[C@H](C(=O)N[C@@H](CCCNC(=N)N)C(=O)N[C@@H](CCC(N)=O)C(=O)N[C@@H](CCCNC(=N)N)C(=O)N[C@@H](CC1CCCCC1)C(N)=O)[C@@H](C)O) [compound No. 247]
Human Y2 receptor [1]
  GBA EC50 Ratio: 1.6
Human Y2 receptor [2]
  RBA IC50 Ratio: 0.70
